From the supplement of paper PMC9112550, “Optimization of the antimicrobial peptide Bac7 by deep mutational scanning” (BMC Biology, 2022) come the findings set out here.
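Also: peptides expressed intracellularly from a pBAD plasmid library in pooled LB shake-flask culture, induced with 0.3% L-arabinose, DNA abundance read by NGS, three biological replicates, DESeq2 with apeglm shrinkage.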

This series has as its system Escherichia coli TOP10. Description: shrunken log2 fold change of peptide-encoding DNA abundance (4.5 h post-induction vs induction); higher = less antimicrobial activity (less host growth inhibition). The settings on record: time post-induction: 4.5 h; library: site-saturation at positions 5, 18, 19, 20.
For RRIRQRPPRLPRPRPRPVRGPRP, the “shrunken log2 fold change” value was 1.97. As for RRIRHRPPRLPRPRPRPSYRPRP, the “shrunken log2 fold change” value was -0.481. The figure for RRIRWRPPRLPRPRPRPFDIPRP is -0.838. The figure for RRIRGRPPRLPRPRPRPNDEPRP is 0.482; for RRIRTRPPRLPRPRPRPQIPPRP it is -0.235. Regarding RRIRKRPPRLPRPRPRPGQAPRP, the “shrunken log2 fold change” value was 0.383. With RRIRRRPPRLPRPRPRPTHDPRP, the “shrunken log2 fold change” value stood at 0.89. Next, RRIRLRPPRLPRPRPRPQCNPRP: -0.0192; RRIRNRPPRLPRPRPRPQKGPRP: 0.0289. Next, RRIRFRPPRLPRPRPRPDAWPRP: 0.0823; RRIRSRPPRLPRPRPRPPIAPRP: 2.36. For RRIRARPPRLPRPRPRPWQPPRP, the “shrunken log2 fold change” value amounted to 0.0351. In the case of RRIRGRPPRLPRPRPRPQQMPRP, the “shrunken log2 fold change” value was 0.287. The figure for RRIRARPPRLPRPRPRPISGPRP is -0.00122. Consider RRIRVRPPRLPRPRPRPNDVPRP, for which the “shrunken log2 fold change” value was -0.116. For the sequence RRIRQRPPRLPRPRPRPEGNPRP, the “shrunken log2 fold change” value is -0.00965. The figure for RRIRQRPPRLPRPRPRPGHRPRP is 0.0349. The figure for RRIRCRPPRLPRPRPRPCKFPRP is -0.431. The figure for RRIRKRPPRLPRPRPRPAVDPRP is -0.0502; for RRIRGRPPRLPRPRPRPENLPRP it is -0.0405. Regarding RRIRDRPPRLPRPRPRPKTAPRP, the “shrunken log2 fold change” value was determined as 0.00938. The figure for RRIRVRPPRLPRPRPRPVLNPRP is -0.2; for RRIRNRPPRLPRPRPRPGSYPRP it is -0.442; for RRIRFRPPRLPRPRPRPCERPRP it is -0.141. Next, RRIRFRPPRLPRPRPRPRPRPRP: 1.65; RRIRRRPPRLPRPRPRPRGIPRP: 0.169.

Regarding RRIRIRPPRLPRPRPRPIAMPRP, the “shrunken log2 fold change” value is -0.216.

On to RRIRRRPPRLPRPRPRPKKKPRP, for which the “shrunken log2 fold change” value is -0.00706. On to RRIRARPPRLPRPRPRPDPAPRP, for which the “shrunken log2 fold change” value was 1.3. Next, RRIRNRPPRLPRPRPRPRHYPRP: -0.446; RRIRFRPPRLPRPRPRPVLKPRP: -0.24; RRIRHRPPRLPRPRPRPIAKPRP: 0.05. The figure for RRIRSRPPRLPRPRPRPEGLPRP is -0.0431; for RRIRKRPPRLPRPRPRPICDPRP it is 0.0999. For RRIRARPPRLPRPRPRPQWHPRP, the “shrunken log2 fold change” value is -0.0862. The figure for RRIRKRPPRLPRPRPRPLESPRP is 0.515; for RRIRLRPPRLPRPRPRPLFYPRP it is -0.238; for RRIRNRPPRLPRPRPRPQPTPRP it is 0.0158.

As to RRIRPRPPRLPRPRPRPWQMPRP, the “shrunken log2 fold change” value was determined as 0.0571. Consider RRIRSRPPRLPRPRPRPQPMPRP, for which the “shrunken log2 fold change” value amounted to 0.128. The figure for RRIRWRPPRLPRPRPRPINHPRP is -0.914. Turning to RRIRLRPPRLPRPRPRPHGDPRP, the “shrunken log2 fold change” value was -0.0331. RRIRQRPPRLPRPRPRPPDKPRP: the “shrunken log2 fold change” value is -0.116. The figure for RRIRIRPPRLPRPRPRPCWMPRP is -0.222; for RRIRLRPPRLPRPRPRPVQDPRP it is -0.105; for RRIRTRPPRLPRPRPRPRQKPRP it is 0.0911.

Consider RRIRMRPPRLPRPRPRPASNPRP, for which the “shrunken log2 fold change” value was 0.421. The figure for RRIRGRPPRLPRPRPRPDQAPRP is 0.925. RRIRPRPPRLPRPRPRPKMRPRP: the “shrunken log2 fold change” value amounted to 0.903. RRIRMRPPRLPRPRPRPKQFPRP: the “shrunken log2 fold change” value was found to be 0.255. RRIRVRPPRLPRPRPRPQFKPRP: the “shrunken log2 fold change” value is -0.576. The figure for RRIRERPPRLPRPRPRPTWWPRP is 0.412; for RRIRNRPPRLPRPRPRPQFSPRP it is -0.306. In the case of RRIRFRPPRLPRPRPRPWHSPRP, the “shrunken log2 fold change” value was -0.018. The figure for RRIRARPPRLPRPRPRPGTMPRP is 0.351. Next, RRIRARPPRLPRPRPRPDAKPRP: 0.338; RRIRFRPPRLPRPRPRPPMDPRP: -0.155. In the case of RRIRMRPPRLPRPRPRPEATPRP, the “shrunken log2 fold change” value stood at 4.04. Take RRIRNRPPRLPRPRPRPDRNPRP: the “shrunken log2 fold change” value is -0.0291. As to RRIRDRPPRLPRPRPRPNPMPRP, the “shrunken log2 fold change” value was -0.0935. As for RRIRDRPPRLPRPRPRPGWRPRP, the “shrunken log2 fold change” value turned out to be 0.832. Regarding RRIRDRPPRLPRPRPRPEDWPRP, the “shrunken log2 fold change” value turned out to be 1.45.

RRIRYRPPRLPRPRPRPIWGPRP: the “shrunken log2 fold change” value was -0.0267. Next, RRIRRRPPRLPRPRPRPYCDPRP: -0.0241. As for RRIRTRPPRLPRPRPRPRCLPRP, the “shrunken log2 fold change” value was -0.0645.

Regarding RRIRTRPPRLPRPRPRPHNWPRP, the “shrunken log2 fold change” value was 0.0661. Next, RRIRVRPPRLPRPRPRPYQEPRP: 0.00202; RRIRARPPRLPRPRPRPVDMPRP: -0.109; RRIRRRPPRLPRPRPRPGRAPRP: 0.648. RRIRFRPPRLPRPRPRPNAEPRP: the “shrunken log2 fold change” value was found to be 0.67. Regarding RRIRVRPPRLPRPRPRPEFPPRP, the “shrunken log2 fold change” value was -0.081. The figure for RRIRHRPPRLPRPRPRPTADPRP is 0.202; for RRIRPRPPRLPRPRPRPEDEPRP it is 0.242; for RRIRDRPPRLPRPRPRPQANPRP it is 0.231. For RRIRMRPPRLPRPRPRPKLFPRP, the “shrunken log2 fold change” value is 0.244. RRIRHRPPRLPRPRPRPKYFPRP: the “shrunken log2 fold change” value is -0.0202. The figure for RRIRTRPPRLPRPRPRPWNMPRP is -0.276; for RRIRHRPPRLPRPRPRPTCIPRP it is -0.147. The figure for RRIRFRPPRLPRPRPRPDALPRP is -0.0978; for RRIRQRPPRLPRPRPRPQGNPRP it is 0.00341; for RRIRKRPPRLPRPRPRPESCPRP it is 0.183. With RRIRGRPPRLPRPRPRPEQAPRP, the “shrunken log2 fold change” value turned out to be 1.83.

Turning to RRIRYRPPRLPRPRPRPWVSPRP, the “shrunken log2 fold change” value is -0.013. As for RRIRKRPPRLPRPRPRPFITPRP, the “shrunken log2 fold change” value is -0.352. In the case of RRIRFRPPRLPRPRPRPQKCPRP, the “shrunken log2 fold change” value was -0.332. Next, RRIRRRPPRLPRPRPRPRWKPRP: -0.0516.

Regarding RRIRCRPPRLPRPRPRPFVMPRP, the “shrunken log2 fold change” value was -0.153. Next, RRIRIRPPRLPRPRPRPMRKPRP: 0.0125; RRIRLRPPRLPRPRPRPYVTPRP: -0.169. The figure for RRIRMRPPRLPRPRPRPTQLPRP is 0.668; for RRIRCRPPRLPRPRPRPIKLPRP it is -0.63. The figure for RRIRFRPPRLPRPRPRPAKIPRP is 0.117. As to RRIRYRPPRLPRPRPRPFSYPRP, the “shrunken log2 fold change” value is -0.145. The figure for RRIRRRPPRLPRPRPRPPVDPRP is 0.241; for RRIRLRPPRLPRPRPRPFYFPRP it is -0.432; for RRIRERPPRLPRPRPRPPYYPRP it is -0.433. The figure for RRIRWRPPRLPRPRPRPPCTPRP is 0.124; for RRIRNRPPRLPRPRPRPSMSPRP it is -0.222; for RRIRQRPPRLPRPRPRPGDWPRP it is 0.866. Turning to RRIRSRPPRLPRPRPRPMQYPRP, the “shrunken log2 fold change” value is -0.289.

As for RRIRARPPRLPRPRPRPFDIPRP, the “shrunken log2 fold change” value is -0.127.

Turning to RRIRFRPPRLPRPRPRPANFPRP, the “shrunken log2 fold change” value was found to be 0.151. In the case of RRIRPRPPRLPRPRPRPLSEPRP, the “shrunken log2 fold change” value was found to be 0.126. Next, RRIRARPPRLPRPRPRPKWFPRP: 0.053; RRIRCRPPRLPRPRPRPKPWPRP: 0.275; RRIRFRPPRLPRPRPRPPFDPRP: 0.188. For the sequence RRIRFRPPRLPRPRPRPHMQPRP, the “shrunken log2 fold change” value was -0.725. Take RRIRYRPPRLPRPRPRPRINPRP: the “shrunken log2 fold change” value is -0.196. Consider RRIRYRPPRLPRPRPRPGLWPRP, for which the “shrunken log2 fold change” value is 0.032. The figure for RRIRFRPPRLPRPRPRPCHRPRP is -0.113. On to RRIRHRPPRLPRPRPRPNYNPRP, for which the “shrunken log2 fold change” value is -0.89. The figure for RRIRTRPPRLPRPRPRPDQIPRP is -0.0138; for RRIRARPPRLPRPRPRPALKPRP it is 0.825.

With RRIRIRPPRLPRPRPRPCNTPRP, the “shrunken log2 fold change” value was -0.0252. The figure for RRIRPRPPRLPRPRPRPVWHPRP is 0.186. Turning to RRIRVRPPRLPRPRPRPWHYPRP, the “shrunken log2 fold change” value was -0.647.

As to RRIRKRPPRLPRPRPRPKWGPRP, the “shrunken log2 fold change” value came out at 0.594. Take RRIRWRPPRLPRPRPRPKFMPRP: the “shrunken log2 fold change” value is -0.0525.

For the sequence RRIRERPPRLPRPRPRPDLAPRP, the “shrunken log2 fold change” value is 0.27. With RRIRLRPPRLPRPRPRPWFGPRP, the “shrunken log2 fold change” value is -0.149. Next, RRIRFRPPRLPRPRPRPLWYPRP: -0.721; RRIRWRPPRLPRPRPRPTTFPRP: -0.09; RRIRERPPRLPRPRPRPDVLPRP: -0.138.

In the case of RRIRFRPPRLPRPRPRPLMPPRP, the “shrunken log2 fold change” value was -0.00679. As for RRIRNRPPRLPRPRPRPMKMPRP, the “shrunken log2 fold change” value was determined as 0.064.
